Assay results taken from patent publication US20250026827A1 (Alector, published 2025).

T1: mouse SIRPα on cells (mouse, UniProt P97797 32-513)
T1 construct: whole, on cells
T1 sequence (looked up): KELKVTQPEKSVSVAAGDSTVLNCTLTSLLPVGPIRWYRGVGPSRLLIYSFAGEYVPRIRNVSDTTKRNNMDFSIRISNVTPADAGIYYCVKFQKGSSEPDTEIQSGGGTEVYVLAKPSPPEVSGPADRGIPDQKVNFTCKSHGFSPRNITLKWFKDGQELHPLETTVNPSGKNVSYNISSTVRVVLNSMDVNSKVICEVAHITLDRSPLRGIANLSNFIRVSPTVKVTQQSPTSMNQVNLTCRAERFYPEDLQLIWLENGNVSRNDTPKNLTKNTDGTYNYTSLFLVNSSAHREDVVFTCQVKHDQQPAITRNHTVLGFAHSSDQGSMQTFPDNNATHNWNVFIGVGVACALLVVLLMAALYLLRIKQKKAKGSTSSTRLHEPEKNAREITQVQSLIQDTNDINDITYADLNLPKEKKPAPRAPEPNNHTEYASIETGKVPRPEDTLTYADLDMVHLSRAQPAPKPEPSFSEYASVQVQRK

T2: mouse SIRPβ1 on CHO cells (mouse)
T2 construct: Whole entry
T2 chain: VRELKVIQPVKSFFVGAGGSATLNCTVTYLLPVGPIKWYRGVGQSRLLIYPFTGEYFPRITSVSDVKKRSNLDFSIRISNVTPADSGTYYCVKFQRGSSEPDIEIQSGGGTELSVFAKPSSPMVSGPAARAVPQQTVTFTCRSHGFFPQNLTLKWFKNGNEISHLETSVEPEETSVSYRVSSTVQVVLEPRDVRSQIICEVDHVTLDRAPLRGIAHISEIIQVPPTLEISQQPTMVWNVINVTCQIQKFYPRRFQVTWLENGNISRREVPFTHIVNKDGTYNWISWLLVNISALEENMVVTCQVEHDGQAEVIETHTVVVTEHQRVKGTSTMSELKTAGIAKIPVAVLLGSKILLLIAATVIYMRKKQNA

T3: mouse SIRPα D1-Fc (mouse, UniProt P97797 32-150, limits assumed)
T3 construct: domain: D1
T3 sequence (looked up): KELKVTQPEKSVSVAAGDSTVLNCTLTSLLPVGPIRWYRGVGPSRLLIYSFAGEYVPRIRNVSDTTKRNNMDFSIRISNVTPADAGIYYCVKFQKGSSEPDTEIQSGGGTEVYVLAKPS


Key:
mouse SIRPα on cells [1] = target: T1, mouse SIRPα on cells; test: flow cytometry;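 for FOB: antibodies tested at 1 µg/ml for 30 min on ice against receptor-expressing cells, detected with a PE-labelled secondary antibody, read as mean fluorescence intensity relative to background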
[2] = target: T2, mouse SIRPβ1 on CHO cells; test: flow cytometry;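 for FOB: antibodies tested at 1 µg/ml for 30 min on ice against receptor-expressing cells, detected with a PE-labelled secondary antibody, read as mean fluorescence intensity relative to background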
mouse SIRPα D1-Fc = target: T3, mouse SIRPα D1-Fc; test: Octet
mouse SIRPα on cells [3] = target: T1, mouse SIRPα on cells; test: flow cytometry; remark: listed apart in the source;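 for FOB: antibodies tested at 1 µg/ml for 30 min on ice against receptor-expressing cells, detected with a PE-labelled secondary antibody, read as mean fluorescence intensity relative to background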
[4] = target: T2, mouse SIRPβ1 on CHO cells; test: flow cytometry;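 for FOB: antibodies tested at 1 µg/ml for 30 min on ice against receptor-expressing cells, detected with a PE-labelled secondary antibody, read as mean fluorescence intensity relative to background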
human SIRPα on cells [5] = target: T4, human SIRPα on cells (human, UniProt P78324 31-504); test: flow cytometry
T4 construct: Whole entry

[6] = target: T5, human SIRPβ1 isoform 1 on cells (human, UniProt O00241 30-398); test: flow cytometry
T5 construct: On CHO cells (low level), on BWZ/BW5147.G.1.4 cells (reporter cells co-express human DAP12) or on primary human myeloid cells; also called huSIRPβ1; BWZ-huSIRPβ1
T5 sequence (O00241 30-398): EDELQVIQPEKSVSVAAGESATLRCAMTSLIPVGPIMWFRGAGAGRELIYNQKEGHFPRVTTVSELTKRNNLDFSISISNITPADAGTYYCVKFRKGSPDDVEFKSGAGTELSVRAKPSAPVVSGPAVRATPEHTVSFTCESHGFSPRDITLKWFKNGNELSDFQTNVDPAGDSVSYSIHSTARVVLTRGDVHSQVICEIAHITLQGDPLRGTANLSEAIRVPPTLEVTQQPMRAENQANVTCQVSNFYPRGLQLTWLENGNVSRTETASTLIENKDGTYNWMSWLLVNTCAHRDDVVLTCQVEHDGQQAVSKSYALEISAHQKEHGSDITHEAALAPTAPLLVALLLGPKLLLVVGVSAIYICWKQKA

human SIRPα on cells [7] = target: T4, human SIRPα on cells; test: flow cytometry; remark: listed apart in the source
[8] = target: T6, human SIRPα domain 1 (D1) Fc fusion (human, UniProt P78324 32-149); test: Octet
T6 construct: also called human SIRPα D1-Fc; Human SIRPα Fc; not shown: C-terminal human IgG1 Fc

binding result (mouse SIRPα on cells [1]) | binding result [2] | binding result (mouse SIRPα D1-Fc) | FOB (mouse SIRPα on cells [3]) [fold over background] | FOB [4] [fold over background] | FOB (human SIRPα on cells [5]) [fold over background] | FOB [6] [fold over background] | binding result (human SIRPα on cells [7]) | binding result [8] | Binder
no binding (tested: 1 ug/ml) | no binding (tested: 1 ug/ml) | no binding (tested: 100 nM) | 1.4 | 1.5 | 1.9 | 2.4 | no binding (tested: 1 ug/ml) | no binding (tested: 100 nM) | SB-23 (antibody, V domains shown, IgG) VH: QVQLVQSGAEVKKPGSSVKVSCKASGGTFSSYAISWVRQAPGQGLEWMGGIAPIFGTANYAQKFQGRVTITADESTSTAYMELSSLRSEDTAVYYCARTTYRDYYMDVWGKGTTVTVSS VL: DIQMTQSPSSLSASVGDRVTITCRASQSISSYLNWYQQKPGKAPKLLIYAASSLQSGVPSRFSGSGSGTDFTLTISSLQPEDFATYYCQQAYPYPLTFGGGTKVEIK
no binding (tested: 1 ug/ml) | no binding (tested: 1 ug/ml) | no binding (tested: 100 nM) | 1.3 | 1.2 | 2.5 | 2.1 | no binding (tested: 1 ug/ml) | no binding (tested: 100 nM) | SB-25 (antibody, V domains shown, IgG) VH: QVQLVQSGAEVKKPGSSVKVSCKASGGTFSSLAISWVRQAPGQGLEWMGGIIPIFGTANYAQKFQGRVTITADESTSTAYMELSSLRSEDTAVYYCARSGGDYSGYDYASGMDVWGQGTTVTVSS VL: DIQMTQSPSSVSASVGDRVTITCRASQGISSWLAWYQQKPGKAPKLLIYAASSLQSGVPSRFSGSGSGTDFTLTISSLQPEDFATYYCQQVNSFPWTFGGGTKVEIK
no binding (tested: 1 ug/ml) | no binding (tested: 1 ug/ml) | no binding (tested: 100 nM) | 1.1 | 1.3 | 2.5 | 3.7 | no binding (tested: 1 ug/ml) | no binding (tested: 100 nM) | SB-24 (antibody, V domains shown, IgG) VH: QVQLQESGPGLVKPSETLSLTCAVSGYSISSGYYWAWIRQPPGKGLEWIGSIYHSGSTYYNPSLKSRVTISVDTSKNQFSLKLSSVTAADTAVYYCARDRSRGYPVYGMDVWGQGTTVTVSS VL: EIVMTQSPATLSVSPGERATLSCRASQSVSSNLAWYQQKPGQAPRLLIYGASTRATGIPARFSGSGSGTEFTLTISSLQSEDFAVYYCQQLNIHPWTFGGGTKVEIK
no binding (tested: 1 ug/ml) | no binding (tested: 1 ug/ml) | no binding (tested: 100 nM) | 1.3 | 1.2 | 2 | 1.8 | no binding (tested: 1 ug/ml) | no binding (tested: 100 nM) | SB-34 (antibody, V domains shown, IgG) VH: not shown VL: EIVMTQSPATLSVSPGERATLSCRASQSVSSNLAWYQQKPGQAPRLLIYGASTRATGIPARFSGSGSGTEFTLTISSLQSEDFAVYYCQQDNTFPYTFGGGTKVEIK

The remaining lines, values behind:

Binder | binding result (mouse SIRPα on cells [1]) | binding result [2] | binding result (mouse SIRPα D1-Fc) | FOB (mouse SIRPα on cells [3]) [fold over background] | FOB [4] [fold over background] | FOB (human SIRPα on cells [5]) [fold over background] | FOB [6] [fold over background] | binding result (human SIRPα on cells [7]) | binding result [8]
SB-36 (antibody, V domains shown, IgG) VH: QVQLVQSGAEVKKPGASVKVSCKASGYTFTSYYMHWVRQAPGQGLEWMGIINPSGGSTSYAQKFQGRVTMTRDTSTSTVYMELSSLRSEDTAVYYCAREGPEQLWYLDYWGQGTLVTVSS VL: DIQMTQSPSSVSASVGDRVTITCRASQGISSWLAWYQQKPGKAPKLLIYAASSLQSGVPSRFSGSGSGTDFTLTISSLQPEDFATYYCQQAFSHRTFGGGTKVEIK | no binding (tested: 1 ug/ml) | no binding (tested: 1 ug/ml) | no binding (tested: 100 nM) | 1.2 | 1.1 | 2.1 | 1.7 | – | –
SB-18 (antibody, V domains shown, IgG) VH: QVQLVQSGAEVKKPGSSVKVSCKASGGTFSSYAISWVRQAPGQGLEWMGGIIPIFGTANYAQKFQGRVTITADESTSTAYMELSSLRSEDTAVYYCARAKPRGDYGMDVWGQGTTVTVSS VL: not shown | no binding (tested: 1 ug/ml) | no binding (tested: 1 ug/ml) | no binding (tested: 100 nM) | 0.9 | 1.2 | 2.4 | 2.8 | no binding (tested: 1 ug/ml) | no binding (tested: 100 nM)
SB-27 (antibody, V domains shown, IgG) VH: QVQLVQSGAEVKKPGSSVKVSCKASGGTFSSYAISWVRQAPGQGLEWMGGIIPIFGTANYAQKFQGRVTITADESTSTAYMELSSLRSEDTAVYYCARQDLGSSHWHFDLWGRGTLVTVSS VL: not shown | no binding (tested: 1 ug/ml) | no binding (tested: 1 ug/ml) | no binding (tested: 100 nM) | 1.1 | 1.3 | 2.4 | 3.9 | no binding (tested: 1 ug/ml) | no binding (tested: 100 nM)
SB-7 (antibody, V domains shown, IgG) VH: QVQLVQSGAEVKKPGSSVKVSCKASGGTFSSYAISWVRQAPGQGLEWMGGIIPIFGTASYAQKFQGRVTITADESTSTAYMELSSLRSEDTAVYYCARETRQDSAHYYGMDVWGQGTTVTVSS VL: not shown | no binding (tested: 1 ug/ml) | no binding (tested: 1 ug/ml) | no binding (tested: 100 nM) | 1 | 1.5 | 2 | 3.7 | no binding (tested: 1 ug/ml) | no binding (tested: 100 nM)
SB-20 (antibody, V domains shown, IgG) VH: QVQLVQSGAEVKKPGSSVKVSCKASGGTFSSYAISWVRQAPGQGLEWMGSIIPIFGTANYAQKFQGRVTITADESTSTAYMELSSLRSEDTAVYYCARDGREYGGHYYGMDVWGQGTTVTVSS VL: not shown | no binding (tested: 1 ug/ml) | no binding (tested: 1 ug/ml) | no binding (tested: 100 nM) | 1.2 | 1.3 | 2.2 | 2.6 | no binding (tested: 1 ug/ml) | no binding (tested: 100 nM)
SB-16 (antibody, V domains shown, IgG) VH: QVQLVQSGAEVKKPGSSVKVSCKASGGTFSSYAISWVRQAPGQGLEWMGSIIPIFGTANYAQKFQGRVTITADESTSTAYMELSSLRSEDTAVYYCARANYYDSSGYSGLDLWGRGTLVTVSS VL: not shown | no binding (tested: 1 ug/ml) | no binding (tested: 1 ug/ml) | no binding (tested: 100 nM) | 1.4 | 1.5 | 2 | 2 | no binding (tested: 1 ug/ml) | no binding (tested: 100 nM)
SB-22 (antibody, V domains shown, IgG) VH: EVQLVESGGGLVQPGGSLRLSCAASGFTVSSNYMSWVRQAPGKGLEWVSVIYSDGSTYYADSVKGRFTISRDNSKNTLYLQMNSLRAEDTAVYYCARPTRYGYDRLGMDVWGQGTTVTVSS VL: DIQMTQSPSSVSASVGDRVTITCRASQGISSWLAWYQQKPGKAPKLLIYAASNLQSGVPSRFSGSGSGTDFTLTISSLQPEDFATYYCQQGNSYPITFGGGTKVEIK | no binding (tested: 1 ug/ml) | no binding (tested: 1 ug/ml) | no binding (tested: 100 nM) | 0.9 | 1.4 | 1.9 | 1.4 | no binding (tested: 1 ug/ml) | no binding (tested: 100 nM)
